Assay results reported in article PMC3282739.

Legend:
[1] = molecular target: Cthe_2751 (Clostridium thermocellum); assay: SEC; Hi Load 10/300 Superdex G75 gel filtration column equilibrated with 20 mM Tris-HCl, 100 mM NaCl, pH 8.0
[2] = molecular target: Cthe_2751 (Clostridium thermocellum); assay: AUC; sedimentation velocity in an analytical ultracentrifuge; curve generated with Sedfit

stoichiometry N [1]: 2
stoichiometry N [2]: 2
Substance: Cthe_2751 (natural protein)
